Columns and labels:
[1] = molecular target: T1, MORC2 subset C (Homo sapiens, UniProt Q9Y6X9 1-1032, R754D;R755D;K756D;R758D;K760D;R761D); assay: fluorescence anisotropy; apo; FA/EMSA: 50 mM NaCl, 3 mM MgCl2, 20 mM Na-HEPES pH 7.4, 1 mM TCEP, 10% glycerol, 0.025 mM ZnCl2, 50 ug/ml BSA, room temperature; 1 nM nucleic acid (FA) or 20 nM DNA (EMSA); details: protein: recombinant; tags: tag removed by TEV; chain copies: 2; label: 5'-6-FAM; blunt
T1 sequence: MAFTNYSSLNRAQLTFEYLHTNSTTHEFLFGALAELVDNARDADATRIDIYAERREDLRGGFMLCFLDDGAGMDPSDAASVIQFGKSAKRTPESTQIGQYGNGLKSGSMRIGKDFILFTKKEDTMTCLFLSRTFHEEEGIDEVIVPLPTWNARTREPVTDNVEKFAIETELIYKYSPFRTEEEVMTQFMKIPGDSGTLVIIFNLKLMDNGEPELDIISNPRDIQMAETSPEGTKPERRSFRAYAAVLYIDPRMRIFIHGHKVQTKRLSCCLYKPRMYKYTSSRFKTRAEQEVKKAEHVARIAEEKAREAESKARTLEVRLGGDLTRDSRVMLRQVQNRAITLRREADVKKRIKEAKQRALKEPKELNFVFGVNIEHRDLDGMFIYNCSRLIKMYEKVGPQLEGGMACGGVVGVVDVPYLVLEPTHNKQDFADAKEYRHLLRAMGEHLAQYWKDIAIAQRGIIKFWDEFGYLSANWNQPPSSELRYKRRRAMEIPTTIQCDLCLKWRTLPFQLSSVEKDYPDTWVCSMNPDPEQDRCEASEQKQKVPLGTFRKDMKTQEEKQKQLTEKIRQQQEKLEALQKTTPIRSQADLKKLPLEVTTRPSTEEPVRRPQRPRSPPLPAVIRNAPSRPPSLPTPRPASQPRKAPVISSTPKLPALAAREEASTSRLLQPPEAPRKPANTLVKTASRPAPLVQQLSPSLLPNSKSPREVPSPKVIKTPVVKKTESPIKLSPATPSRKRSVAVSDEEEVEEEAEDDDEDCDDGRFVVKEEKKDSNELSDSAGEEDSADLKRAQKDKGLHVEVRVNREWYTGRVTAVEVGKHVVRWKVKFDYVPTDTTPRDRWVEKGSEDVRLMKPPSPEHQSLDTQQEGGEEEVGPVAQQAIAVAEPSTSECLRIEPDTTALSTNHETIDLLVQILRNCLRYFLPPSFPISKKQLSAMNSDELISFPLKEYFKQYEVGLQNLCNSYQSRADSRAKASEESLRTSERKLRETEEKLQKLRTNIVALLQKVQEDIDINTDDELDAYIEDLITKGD

[2] = molecular target: T2, MORC2 subset N (Homo sapiens, UniProt Q9Y6X9 1-1032, K704D;R707D;K713D;K716D;K721D;K722D); assay: as above; details: protein: recombinant; tags: tag removed by TEV; chain copies: 2; label: 5'-6-FAM; blunt
T2 sequence: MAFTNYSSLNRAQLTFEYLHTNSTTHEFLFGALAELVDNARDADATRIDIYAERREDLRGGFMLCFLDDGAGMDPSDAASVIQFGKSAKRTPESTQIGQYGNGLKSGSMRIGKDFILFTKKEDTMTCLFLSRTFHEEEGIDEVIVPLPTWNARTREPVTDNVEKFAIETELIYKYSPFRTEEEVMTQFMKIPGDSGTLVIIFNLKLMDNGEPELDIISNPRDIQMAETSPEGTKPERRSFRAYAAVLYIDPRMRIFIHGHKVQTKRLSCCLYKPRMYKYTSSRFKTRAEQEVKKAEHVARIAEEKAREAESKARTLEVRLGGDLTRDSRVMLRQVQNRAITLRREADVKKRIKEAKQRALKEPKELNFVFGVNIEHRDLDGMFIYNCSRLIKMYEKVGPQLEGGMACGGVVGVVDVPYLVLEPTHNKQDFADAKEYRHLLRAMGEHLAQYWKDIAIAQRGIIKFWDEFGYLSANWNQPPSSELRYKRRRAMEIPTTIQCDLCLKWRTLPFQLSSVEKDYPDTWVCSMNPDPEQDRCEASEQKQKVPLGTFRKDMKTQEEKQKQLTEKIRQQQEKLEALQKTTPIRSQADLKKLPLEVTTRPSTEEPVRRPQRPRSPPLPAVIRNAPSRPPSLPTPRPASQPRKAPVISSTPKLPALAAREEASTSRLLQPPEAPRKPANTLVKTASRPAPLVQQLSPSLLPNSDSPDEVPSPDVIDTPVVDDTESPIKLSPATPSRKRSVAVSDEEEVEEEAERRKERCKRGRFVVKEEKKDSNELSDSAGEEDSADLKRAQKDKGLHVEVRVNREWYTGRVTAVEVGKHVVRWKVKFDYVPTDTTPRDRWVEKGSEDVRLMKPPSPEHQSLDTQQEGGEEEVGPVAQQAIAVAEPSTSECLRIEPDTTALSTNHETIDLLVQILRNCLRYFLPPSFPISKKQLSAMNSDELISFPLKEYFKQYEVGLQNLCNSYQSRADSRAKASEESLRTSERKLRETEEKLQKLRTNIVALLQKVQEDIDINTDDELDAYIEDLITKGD

B1: Random 35mer dsDNA (dsDNA)
DNA 1: ATAGGGTCCATCAGAATTCGGATGAACTCGGTGTG
DNA 2: CACACCGAGTTCATCCGAATTCTGATGGACCCTAT
For B1, which Kd [1] is on record?
The Kd was 60 ± 20 nM.

And the Kd [2]?
Its Kd is 90 ± 20 nM.
